Reference: PMC12809912 (2025)
Each block holds one binder with its values, some of them ahead of it. Ends that are not written are not given here. * marks the point of attachment. Biotin = O=C1N[C@H]2[C@H](CS[C@H]2CCCCC(=O)*)N1

Biological target: T1, biotinylated DEFA5 epitope peptide Biotin-RATCYCRTGRCAT (human, cysteine pairing not given here)
T1 peptide: Biotin-RATCYCRTGRCAT
Assay: SPR

koff: 0.00261 s⁻¹
B1: mouse monoclonal antibody clone 4F5 (anti-DEFA5) (antibody, V domains shown)
VH: QVQLQQSGAELVRPGASVKMSCKALGYTFFDYEMHWMKQTPVYGLEWIGAIHPGSGDTAYNQKFKGKATLTADKSSNTAYMELSSLTSEDSAVYYCTREGTVVAPFDYWGQGTTLTVSS
VL: DVLMTQTPLSLPVSLGDQASISCRSSQSIVHSNGNTYLEWYLQKPGQSPKLLINKVSNRFSGVPDRFSGSGSGTDFTLKISRVEAEDLGVYYCFQGSYVPYTFGGGTKLEIK
modifications: Fc glycosylation, G1F lower and afucosylated G0 ~15 % (intact ESI-MS)

koff: 0.00253 s⁻¹
B2: mouse monoclonal antibody clone 1A8 (anti-DEFA5) (antibody, V domains shown)
VH: B1 VH
VL: B1 VL
modifications: Fc glycosylation, mainly the G1F glycoform (intact ESI-MS)
